Residue numbers refer to the chain shown, from its start.
How the values were obtained:
[1] = system: T1, dCas12j-8 E419R E419R;D369A;E567A;D658A (bacteriophage (metagenome)); conditions: HEK293T cells; panel 1c (compare within a panel only); scale: mean GFP / mean GFP of wild type, printed, no background subtraction
T1 sequence: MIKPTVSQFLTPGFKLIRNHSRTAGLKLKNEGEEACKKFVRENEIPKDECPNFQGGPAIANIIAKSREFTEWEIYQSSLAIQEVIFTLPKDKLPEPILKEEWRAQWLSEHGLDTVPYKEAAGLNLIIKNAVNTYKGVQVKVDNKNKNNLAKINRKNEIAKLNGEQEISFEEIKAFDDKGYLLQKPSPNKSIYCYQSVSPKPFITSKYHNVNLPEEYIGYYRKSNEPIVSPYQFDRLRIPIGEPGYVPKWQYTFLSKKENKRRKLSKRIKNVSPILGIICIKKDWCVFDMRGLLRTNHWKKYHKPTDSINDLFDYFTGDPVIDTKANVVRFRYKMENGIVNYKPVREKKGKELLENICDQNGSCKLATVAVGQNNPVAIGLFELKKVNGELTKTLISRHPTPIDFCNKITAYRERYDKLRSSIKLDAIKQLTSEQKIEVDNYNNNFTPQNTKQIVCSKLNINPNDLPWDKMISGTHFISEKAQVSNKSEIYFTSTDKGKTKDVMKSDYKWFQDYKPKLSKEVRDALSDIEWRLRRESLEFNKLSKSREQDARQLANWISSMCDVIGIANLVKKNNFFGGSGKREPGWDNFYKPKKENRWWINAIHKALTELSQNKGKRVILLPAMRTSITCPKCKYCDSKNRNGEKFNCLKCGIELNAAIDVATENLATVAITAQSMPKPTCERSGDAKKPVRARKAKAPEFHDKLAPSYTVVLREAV

[2] = system: T2, dCas12j-8 E157R E157R;D369A;E567A;D658A (bacteriophage (metagenome)); conditions: HEK293T cells; panel 1c (compare within a panel only); scale: mean GFP / mean GFP of wild type, printed, no background subtraction
T2 sequence: T1 sequence with E157R, R419E

Work on “CUUUCAAGACUAAUAGAUUGCUCCUUACGAGGAGACACUCCCUAUCAGUGAUAGAG / TTNACTCCCTATCAGTGATAGAG / CTCTATCACTGATAGGGAGTNAA [TetO]” yielded a binding signal [1] of 0.894 and a binding signal [2] of 1.39.

Reference: article PMC12412624, “Engineered Cas12j‐8 is a Versatile Platform for Multiplexed Genome Modulation in Mammalian Cells”
